Assay results reported in article PMC10397247.
Blank lines part the entries; values can stand above or below the binder they belong to.

Experiments:
Experiment in all cases: two-hybrid library CCNG1;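 further: natural log of median RNA to DNA barcode read ratio; higher means stronger binding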
4H182-bH = target: T1, 4H182-bH
T1 chain: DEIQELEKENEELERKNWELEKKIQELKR

4H477-bH = target: T2, 4H477-bH
T2 chain: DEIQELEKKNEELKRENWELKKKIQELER

4H2915-bH = target: T3, 4H2915-bH
T3 chain: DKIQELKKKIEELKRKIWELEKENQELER

4H2143-bH = target: T4, 4H2143-bH
T4 chain: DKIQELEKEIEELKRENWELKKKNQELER

4H2134-bH = target: T5, 4H2134-bH
T5 chain: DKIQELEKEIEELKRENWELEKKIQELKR

4H492-bH = target: T6, 4H492-bH
T6 chain: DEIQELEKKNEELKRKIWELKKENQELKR

4H3277-bH = target: T7, 4H3277-bH
T7 chain: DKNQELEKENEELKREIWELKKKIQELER

4H2588-bH = target: T8, 4H2588-bH
T8 chain: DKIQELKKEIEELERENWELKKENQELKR

4H2503-bH = target: T9, 4H2503-bH
T9 chain: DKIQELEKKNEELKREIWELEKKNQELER

4H2717-bH = target: T10, 4H2717-bH
T10 chain: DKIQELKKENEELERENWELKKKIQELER

4H2438-bH = target: T11, 4H2438-bH
T11 chain: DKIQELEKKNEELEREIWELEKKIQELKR

4H348-bH = target: T12, 4H348-bH
T12 chain: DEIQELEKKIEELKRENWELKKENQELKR

4H2839-bH = target: T13, 4H2839-bH
T13 chain: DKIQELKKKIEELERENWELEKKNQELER

4H319-bH = target: T14, 4H319-bH
T14 chain: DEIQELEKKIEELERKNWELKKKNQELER

4H2692-bH = target: T15, 4H2692-bH
T15 chain: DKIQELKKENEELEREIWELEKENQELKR

4H3057-bH = target: T16, 4H3057-bH
T16 chain: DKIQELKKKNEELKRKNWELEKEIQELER

4H2223-bH = target: T17, 4H2223-bH
T17 chain: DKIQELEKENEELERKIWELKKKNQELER

4H40-bH = target: T18, 4H40-bH
T18 chain: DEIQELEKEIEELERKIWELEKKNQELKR

4H2473-bH = target: T19, 4H2473-bH
T19 chain: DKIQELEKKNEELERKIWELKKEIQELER

4H741-bH = target: T20, 4H741-bH
T20 chain: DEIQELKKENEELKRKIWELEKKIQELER

4H1359-bA = target: T21, 4H1359-bA
T21 chain: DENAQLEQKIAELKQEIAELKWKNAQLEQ

4H1629-bA = target: T22, 4H1629-bA
T22 chain: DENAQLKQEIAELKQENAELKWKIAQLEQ

4H1710-bA = target: T23, 4H1710-bA
T23 chain: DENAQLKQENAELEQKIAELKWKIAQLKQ

4H1804-bA = target: T24, 4H1804-bA
T24 chain: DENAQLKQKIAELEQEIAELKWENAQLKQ

4H3817-bA = target: T25, 4H3817-bA
T25 chain: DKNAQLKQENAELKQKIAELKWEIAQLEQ

4H906-bA = target: T26, 4H906-bA
T26 chain: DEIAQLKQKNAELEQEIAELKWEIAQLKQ

4H584-bA = target: T27, 4H584-bA
T27 chain: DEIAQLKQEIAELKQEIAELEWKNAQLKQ

4H570-bA = target: T28, 4H570-bA
T28 chain: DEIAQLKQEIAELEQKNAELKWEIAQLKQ

4H3631-bA = target: T29, 4H3631-bA
T29 chain: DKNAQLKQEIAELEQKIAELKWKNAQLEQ

4H1393-bA = target: T30, 4H1393-bA
T30 chain: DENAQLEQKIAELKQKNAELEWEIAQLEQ

4H3414-bA = target: T31, 4H3414-bA
T31 chain: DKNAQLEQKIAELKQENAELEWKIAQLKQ

4H1985-bA = target: T32, 4H1985-bA
T32 chain: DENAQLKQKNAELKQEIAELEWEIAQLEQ

4H850-bA = target: T33, 4H850-bA
T33 chain: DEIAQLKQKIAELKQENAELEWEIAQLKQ

4H3974-bA = target: T34, 4H3974-bA
T34 chain: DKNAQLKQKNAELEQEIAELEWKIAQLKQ

4H1449-bA = target: T35, 4H1449-bA
T35 chain: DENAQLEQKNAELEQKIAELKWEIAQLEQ

4H3172-bA = target: T36, 4H3172-bA
T36 chain: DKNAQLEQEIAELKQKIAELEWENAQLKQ

4H3129-bA = target: T37, 4H3129-bA
T37 chain: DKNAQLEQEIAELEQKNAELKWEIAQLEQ

4H619-bA = target: T38, 4H619-bA
T38 chain: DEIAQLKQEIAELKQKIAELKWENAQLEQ

4H3638-bA = target: T39, 4H3638-bA
T39 chain: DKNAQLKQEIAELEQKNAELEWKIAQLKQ

interaction score (4H182-bH): 0.517
interaction score (4H477-bH): -0.331
interaction score (4H2915-bH): 0.801
interaction score (4H2143-bH): 0.14
interaction score (4H2134-bH): 0.462
interaction score (4H492-bH): -0.775
interaction score (4H3277-bH): -0.523
interaction score (4H2588-bH): -0.809
interaction score (4H2503-bH): 0.0255
interaction score (4H2717-bH): -0.508
interaction score (4H2438-bH): -0.311
interaction score (4H348-bH): -0.493
interaction score (4H2839-bH): -0.281
interaction score (4H319-bH): 0.27
interaction score (4H2692-bH): 1.16
interaction score (4H3057-bH): 0.511
interaction score (4H2223-bH): 0.341
interaction score (4H40-bH): -0.335
interaction score (4H2473-bH): 0.11
interaction score (4H741-bH): -0.207
Binder: DEIQELEKENEELERKNWELEKKIQELKR [4H182-bH]

interaction score (4H1359-bA): 0.162
interaction score (4H1629-bA): -0.732
interaction score (4H1710-bA): -0.54
interaction score (4H1804-bA): -0.948
interaction score (4H3817-bA): -0.524
interaction score (4H906-bA): -0.601
interaction score (4H584-bA): -0.341
interaction score (4H570-bA): -0.609
interaction score (4H3631-bA): 1.41
interaction score (4H1393-bA): -0.644
interaction score (4H3414-bA): -0.665
interaction score (4H1985-bA): 0.768
interaction score (4H850-bA): -0.751
interaction score (4H3974-bA): -0.0513
interaction score (4H1449-bA): -0.804
interaction score (4H3172-bA): -0.287
interaction score (4H3129-bA): -0.77
interaction score (4H619-bA): -0.844
interaction score (4H3638-bA): -0.492
Binder: DENAQLEQKIAELKQEIAELKWKNAQLEQ [4H1359-bA]
